{"source": "paper PMC5482197", "key": {"[1]": {"target": "recombinant soluble integrin αvβ3 (UniProt P06756)", "sequence (P06756 31-1048, chain 1 of 2)": "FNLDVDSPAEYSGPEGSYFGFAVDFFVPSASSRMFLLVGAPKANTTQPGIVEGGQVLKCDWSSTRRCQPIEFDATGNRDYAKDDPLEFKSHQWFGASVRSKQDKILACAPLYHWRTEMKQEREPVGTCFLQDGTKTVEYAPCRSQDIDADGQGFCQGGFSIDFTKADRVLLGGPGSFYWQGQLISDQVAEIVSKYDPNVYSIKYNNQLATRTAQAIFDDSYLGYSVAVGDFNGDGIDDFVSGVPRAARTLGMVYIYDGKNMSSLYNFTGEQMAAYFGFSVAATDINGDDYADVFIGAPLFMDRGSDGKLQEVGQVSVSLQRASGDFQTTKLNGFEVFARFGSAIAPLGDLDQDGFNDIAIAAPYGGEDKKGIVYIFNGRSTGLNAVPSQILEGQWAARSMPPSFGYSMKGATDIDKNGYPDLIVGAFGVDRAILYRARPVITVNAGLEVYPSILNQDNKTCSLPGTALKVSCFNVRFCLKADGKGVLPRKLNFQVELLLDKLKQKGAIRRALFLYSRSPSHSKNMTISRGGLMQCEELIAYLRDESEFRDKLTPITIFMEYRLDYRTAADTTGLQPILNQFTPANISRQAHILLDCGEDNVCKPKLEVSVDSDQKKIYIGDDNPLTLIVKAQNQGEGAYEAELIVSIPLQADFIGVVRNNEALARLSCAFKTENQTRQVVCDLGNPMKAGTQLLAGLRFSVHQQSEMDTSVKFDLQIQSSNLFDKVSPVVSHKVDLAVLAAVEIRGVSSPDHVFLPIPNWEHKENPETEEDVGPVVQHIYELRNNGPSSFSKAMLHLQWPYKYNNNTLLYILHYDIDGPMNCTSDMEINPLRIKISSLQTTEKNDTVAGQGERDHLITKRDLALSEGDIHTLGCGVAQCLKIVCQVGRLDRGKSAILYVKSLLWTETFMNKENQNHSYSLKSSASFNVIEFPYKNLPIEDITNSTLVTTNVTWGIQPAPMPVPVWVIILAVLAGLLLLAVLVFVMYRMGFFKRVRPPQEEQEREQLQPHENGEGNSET", "sequence (P05106 27-718, chain 2 of 2, further chain)": "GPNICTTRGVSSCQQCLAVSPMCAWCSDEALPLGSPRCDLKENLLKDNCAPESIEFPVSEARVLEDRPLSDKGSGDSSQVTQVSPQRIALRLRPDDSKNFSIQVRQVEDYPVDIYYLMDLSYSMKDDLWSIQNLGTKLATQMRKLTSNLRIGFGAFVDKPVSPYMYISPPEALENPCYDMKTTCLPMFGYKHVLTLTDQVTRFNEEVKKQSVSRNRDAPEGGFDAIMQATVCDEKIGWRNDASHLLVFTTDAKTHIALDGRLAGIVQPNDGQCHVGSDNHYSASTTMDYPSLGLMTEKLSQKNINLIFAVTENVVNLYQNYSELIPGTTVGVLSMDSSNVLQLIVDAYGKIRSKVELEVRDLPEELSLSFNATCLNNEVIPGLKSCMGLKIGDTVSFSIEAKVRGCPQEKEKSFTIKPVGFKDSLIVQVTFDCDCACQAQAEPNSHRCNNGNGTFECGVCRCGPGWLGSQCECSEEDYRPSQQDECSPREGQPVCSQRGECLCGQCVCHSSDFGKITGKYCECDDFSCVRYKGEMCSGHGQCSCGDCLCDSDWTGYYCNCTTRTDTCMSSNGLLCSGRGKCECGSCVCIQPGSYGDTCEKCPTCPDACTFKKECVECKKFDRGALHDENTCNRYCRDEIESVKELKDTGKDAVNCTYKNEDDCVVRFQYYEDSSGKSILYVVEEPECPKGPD", "test": "SPR; soluble αvβ3 immobilized on a CM5 sensor chip by amine coupling; WT and mutant FGF2 two-fold serially diluted from 2 μM in HBS-P buffer (0.01 M Hepes, pH 7.4, 0.15 M NaCl, 0.0005% surfactant P20) with 1 mM Mn2+; 50 μl/min, 1.8 min injection, 3 min dissociation; WT: Kd is the average of Kd values of individual curves; K125E: global fit with a conformation-change model, Kd1 used as Kd"}, "[2]": {"target": "integrin α5β1 on K562 erythroleukaemia cells, P08648;P05556", "test": "cell adhesion assay (K562 cells)", "conditions": "K562 cells (αvβ3-, α5β1+), panel title K562_FGF2_RPMI, read off a plot"}}, "data": [{"substance": "FGF2 K125E mutant (ligand)", "values": [{"measurement": "Kd1 (A + B <=> AB, first step of the conformation-change model; used by the paper as the binding Kd)", "setting": "[1]", "value": 1.1, "unit": "µM"}]}, {"substance": "wild-type human FGF2 (fibroblast growth factor 2) K39E", "values": [{"measurement": "response", "setting": "[2]; FGF2 2.5 µg/ml, parent: est. 63", "value": 27, "unit": "% adhesion"}, {"measurement": "response", "setting": "[2]; FGF2 5 µg/ml, parent: est. 84", "value": 68, "unit": "% adhesion"}, {"measurement": "response", "setting": "[2]; FGF2 20 µg/ml, parent: est. 85", "value": 89, "unit": "% adhesion"}]}, {"substance": "wild-type human FGF2 (fibroblast growth factor 2) (ligand)", "values": [{"measurement": "Kd", "setting": "[1]", "value": 0.0775, "unit": "µM"}]}]}
